Test results as given in US6191256A, “Recombinant factor VIII binding peptides” (Bayer Corporation, priority 1998, dated 2001).

Tests used:
rFVIII [1] = molecular target: T1, rFVIII (Homo sapiens, UniProt P00451); assay: column format binding assay, rFVIII mass per fraction by sandwich capture ELISA for the light chain; details: for 0.5M CaCl2 ng / 0.5M CaCl2 % total / 2% acetic acid % total / 2% acetic acid ng / Flow through % total / Total ng / Flow through ng: Table 5; for Flow through ng: 10,000 ng rFVIII in 1:10 PPF injected, 5° C.; for ELISA results % total: Table 9, 0.5M CaCl2 fraction
T1 sequence (P00451 20-2351): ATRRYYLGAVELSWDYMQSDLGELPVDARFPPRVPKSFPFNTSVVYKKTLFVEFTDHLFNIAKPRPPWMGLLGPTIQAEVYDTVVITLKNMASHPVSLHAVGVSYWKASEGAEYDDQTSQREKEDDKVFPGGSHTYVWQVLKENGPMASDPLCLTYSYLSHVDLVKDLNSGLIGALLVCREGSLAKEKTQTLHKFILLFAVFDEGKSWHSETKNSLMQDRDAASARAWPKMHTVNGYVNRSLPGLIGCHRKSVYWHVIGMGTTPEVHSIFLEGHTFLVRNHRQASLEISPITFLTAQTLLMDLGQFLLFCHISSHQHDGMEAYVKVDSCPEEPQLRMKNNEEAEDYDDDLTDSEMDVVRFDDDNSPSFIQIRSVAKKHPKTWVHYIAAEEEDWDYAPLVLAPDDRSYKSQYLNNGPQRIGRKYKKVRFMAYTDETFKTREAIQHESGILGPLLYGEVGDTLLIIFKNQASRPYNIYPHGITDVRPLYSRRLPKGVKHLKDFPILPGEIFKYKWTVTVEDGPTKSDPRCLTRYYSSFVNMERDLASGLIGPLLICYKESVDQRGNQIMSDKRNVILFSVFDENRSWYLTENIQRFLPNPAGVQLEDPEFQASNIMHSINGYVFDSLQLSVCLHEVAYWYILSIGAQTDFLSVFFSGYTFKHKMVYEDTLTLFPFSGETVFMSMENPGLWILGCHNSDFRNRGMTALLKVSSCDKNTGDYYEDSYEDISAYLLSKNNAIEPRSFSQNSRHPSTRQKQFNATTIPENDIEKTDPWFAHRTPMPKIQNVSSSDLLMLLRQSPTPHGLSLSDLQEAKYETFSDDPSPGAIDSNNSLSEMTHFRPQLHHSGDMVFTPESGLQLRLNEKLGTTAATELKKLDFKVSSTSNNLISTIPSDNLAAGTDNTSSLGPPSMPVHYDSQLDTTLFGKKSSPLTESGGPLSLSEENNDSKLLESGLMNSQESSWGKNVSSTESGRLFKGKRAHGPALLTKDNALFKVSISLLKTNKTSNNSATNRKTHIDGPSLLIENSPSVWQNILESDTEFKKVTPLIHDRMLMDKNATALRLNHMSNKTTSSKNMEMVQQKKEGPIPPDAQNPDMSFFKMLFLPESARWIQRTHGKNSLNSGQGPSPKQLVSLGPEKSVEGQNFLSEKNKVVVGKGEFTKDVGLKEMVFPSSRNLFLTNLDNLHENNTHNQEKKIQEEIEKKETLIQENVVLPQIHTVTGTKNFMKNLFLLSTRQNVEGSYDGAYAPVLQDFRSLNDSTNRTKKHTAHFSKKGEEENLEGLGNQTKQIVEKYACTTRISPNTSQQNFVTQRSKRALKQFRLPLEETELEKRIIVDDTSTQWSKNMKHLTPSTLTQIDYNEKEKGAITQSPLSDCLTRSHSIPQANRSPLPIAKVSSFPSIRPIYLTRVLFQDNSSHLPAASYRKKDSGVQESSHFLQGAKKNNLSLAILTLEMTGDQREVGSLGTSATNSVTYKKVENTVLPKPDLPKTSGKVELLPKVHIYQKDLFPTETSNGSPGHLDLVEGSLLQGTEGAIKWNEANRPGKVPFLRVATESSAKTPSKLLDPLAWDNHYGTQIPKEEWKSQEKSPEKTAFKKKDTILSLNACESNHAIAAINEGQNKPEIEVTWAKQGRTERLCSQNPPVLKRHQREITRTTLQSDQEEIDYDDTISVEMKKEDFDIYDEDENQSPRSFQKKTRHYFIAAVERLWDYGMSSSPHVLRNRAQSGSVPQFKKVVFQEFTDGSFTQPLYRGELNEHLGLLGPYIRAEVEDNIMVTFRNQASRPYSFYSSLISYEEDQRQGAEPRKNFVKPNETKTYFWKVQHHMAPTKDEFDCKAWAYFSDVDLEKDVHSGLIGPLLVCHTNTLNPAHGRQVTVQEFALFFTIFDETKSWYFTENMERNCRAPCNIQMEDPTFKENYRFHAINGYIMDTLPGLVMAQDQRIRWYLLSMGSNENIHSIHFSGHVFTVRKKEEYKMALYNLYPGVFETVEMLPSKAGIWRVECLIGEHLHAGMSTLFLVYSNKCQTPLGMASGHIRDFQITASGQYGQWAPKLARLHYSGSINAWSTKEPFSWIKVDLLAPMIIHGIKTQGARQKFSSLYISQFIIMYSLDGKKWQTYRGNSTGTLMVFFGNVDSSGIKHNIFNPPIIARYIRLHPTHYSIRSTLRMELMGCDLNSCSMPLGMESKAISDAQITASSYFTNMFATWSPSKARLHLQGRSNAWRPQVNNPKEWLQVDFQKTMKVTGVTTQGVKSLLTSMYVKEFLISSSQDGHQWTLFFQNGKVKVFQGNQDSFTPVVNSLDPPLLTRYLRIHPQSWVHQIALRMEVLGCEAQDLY
T1 sequence (P00451 1668-2351 limits assumed): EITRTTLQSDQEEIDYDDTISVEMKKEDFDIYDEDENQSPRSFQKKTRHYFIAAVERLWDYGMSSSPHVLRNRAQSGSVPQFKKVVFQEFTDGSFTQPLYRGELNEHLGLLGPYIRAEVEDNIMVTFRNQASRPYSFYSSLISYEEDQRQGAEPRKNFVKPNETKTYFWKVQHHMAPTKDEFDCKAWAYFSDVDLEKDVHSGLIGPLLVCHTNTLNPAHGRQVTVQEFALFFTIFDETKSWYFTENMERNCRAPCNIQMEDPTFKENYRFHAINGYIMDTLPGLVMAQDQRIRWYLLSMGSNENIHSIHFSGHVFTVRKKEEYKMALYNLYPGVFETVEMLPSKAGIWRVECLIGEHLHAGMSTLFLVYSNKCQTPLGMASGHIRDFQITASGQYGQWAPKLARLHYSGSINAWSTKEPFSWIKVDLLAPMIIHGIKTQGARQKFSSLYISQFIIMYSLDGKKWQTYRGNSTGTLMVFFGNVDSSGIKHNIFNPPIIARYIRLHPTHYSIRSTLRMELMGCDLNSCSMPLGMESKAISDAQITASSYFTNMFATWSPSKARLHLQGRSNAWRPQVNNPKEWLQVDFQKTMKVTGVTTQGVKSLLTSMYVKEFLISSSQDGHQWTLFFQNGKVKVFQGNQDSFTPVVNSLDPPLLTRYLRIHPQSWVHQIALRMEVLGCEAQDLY
Description: Immunoassay on rFVIII using a sandwich capture ELISA for the light chain and activity assay using a chromogenic substrate (COATEST Factor VIII kit from diaPharma, Franklin, Ohio) were performed on a BIOMEK® automated liquid handling system from Beckman Instruments (Brea, Calif.). The monoclonal antibody for rFVIII light chain (known as C7F7), the ELISA assay standard (lot A70K019), and the control for the activity assay (lot A70A001 @ 140 IU/mL) were from the Bayer Corporation (Berkeley, Calif.). The standard for the activity assay was at 11.2 IU/mL (Bayer, Clayton, N.C.), calibrated against the MEGA 1 standard, which is a working standard used by American manufacturers for measuring factor VIII activity (21).
Additional confirmatory binding assay and performance of the discovered binding peptides in terms of total rFVIII and activity recovery was performed in a column chromatographic format on a microbore HPLC. The resins were packed into 0.4×5 cm columns (Thomson, Springfield, Va.) and tested on the MICHROM HPLC system (Michrom BioResources, Auburn, Calif.). The elution program for the trials utilized the following method. The column was pre-equilibrated with equilibration buffer (as above). A 1 mL aliquot of 1:10 PPF followed by 1 mL of rFVIII (10,000 ng) in 1:10 PPF were injected and allowed sufficient time to flow through the column using equilibration buffer. The column was then washed with step elutions of 0.5 M and 1.0 M CaCl2 in equilibration buffer. The column was exposed to equilibration buffer. Remaining protein was eluted with 2% by volume glacial acetic acid in water. Columns were kept at 5° C. during the chromatographic runs. For each 1 mL injection (equilibration buffer, 1:10 PPF and 10,000 ng rFVIII in 1:10 PPF), the chromatographic cycle was run for 45 minutes (injection, flow through, 0.5 M CaCl2, 1.0 M CaCl2, equilibration buffer, 2% acetic acid, equilibration buffer).
A Gilson FC204 fraction collector at the HPLC outlet collected individual eluates for further analysis. Each collection tube had 100 μL hSA added to it to stabilize the rFVIII. Fractions collected from the 2% acetic acid eluates were neutralized with 2 M Tris, pH 10.5 to bring the pH to neutrality. The fractions were analyzed for total protein by the integration of the absorbance at 280 nm, for rFVIII by immunoassay (sandwich capture ELISA), and for rFVIII activity by a chromogenic substrate assay.
Tables 5 and 6 present the results from the additional confirmatory binding assays using the column format. The chromatography method was run by injecting the samples at a flow rate of 865 μL/min (413 cm/hr). In order to provide a 10 minute residence time of sample in the column the flow was decreased to 17 μL/min (10 cm/hr) upon injection.
Following the incubation, the flow was set at 865 μL/min (413 cm/hr) for the step clutions of 0.5 M CaCl2, 1.0 M CaCl2, and 2% acetic acid. Results are expressed in terms of the total mass of rFVIII in each fraction, as determined by the sandwich capture ELISA assay for the rFVIII light chain. […] A control using a non-binding peptide sequence (IGF) is also shown for comparison--in this case, 95% of the rFVIII loaded to the column was collected in the flow through fraction. Additional controls with no

rFVIII [2] = molecular target: T1, rFVIII; assay: confirmatory binding assay in filtration plate format using 14C-rFVIII; details: for Total dpm / 0.5M CaCl2 % total / 2% acetic acid % total / 2% acetic acid dpm / 0.5M CaCl2 dpm / beads % total / beads dpm: Table 3; for Total dpm / beads % total / beads dpm: 14C-rFVIII 20 nM; for 0.5M CaCl2 % total / 2% acetic acid % total / 2% acetic acid dpm / 0.5M CaCl2 dpm: 14C-rFVIII 20 nM in PPF, 5 mg beads; for 0.5M CaCl2 dpm: 3.0 × 10^15 DPM/mole, 5° C.; for beads % total / beads dpm: remaining on beads after washes
Description: Confirmatory binding assays were performed in a filtration plate format using individual peptide sequences synthesized directly onto the TOYOPEARL AF amino 650 M resin, at a final substitution density of 0.1 mmole/g resin. A slurry of each individual peptide sequence was prepared using deionized water. A 100 μL volume of beads (corresponding to 5 mg) was loaded into each well of the filtration plate (MULTISCREEN Assay System, Millipore, Bedford, Mass.), in triplicate for each peptide sequence. Beads were washed with 20% ethanol and incubated overnight with equilibration buffer (20 mM imidazole, 10 mM
CaCl2, 0.105 M NaCl, pH 6.9). A 100 μL aliquot of ^14 C-rFVIII diluted in neat PPF to a final concentration of 20-30 nM was loaded into each well and incubated for 1 hour at 5° C. Filtrate (unbound ^14 C-rFVIII) was collected into a microtiter plate and transferred to liquid scintillation vials for dpm counting. Beads were washed sequentially with: 100 μL of equilibration buffer for 15 minutes, 200 μL of 0.5 M CaCl2 (in equilibration buffer), 200 μL of 1.0 M CaCl2 (in equilibration buffer), and 200 uL of 2% by volume glacial acetic acid in water, for 1 hour each at 5° C. Scintillation counting on the unbound ^14 C-rFVIII (plus equilibration buffer wash), salt and acid washes, as well as on the beads was then performed and the overall mass balance calculated.
Beads presenting the appropriate peptide sequence on the surface were placed in the filtration plate wells and incubated sequentially with equilibration buffer, ^14 C-rFVIII in PPF, equilibration buffer, 0.5 M CaCl2 wash, 1.0 M CaCl2 wash and 2% acetic acid wash. After each incubation, filtrate was collected in microtiter plates, and dpm counted on each
In Table 3, the ^14 C-rFVIII was loaded at 20 nM (in PPF) and the radiolabeling yield was at 3.0×10^15 dpm/mole. In Table 4, the ^14 C-rFVIII was loaded at 30 nM (in PPF) and the radiolabeling yield was at 5.0×10^15 dpm/mole.

Substance	0.5M CaCl2 ng (rFVIII [1]) [ng]	0.5M CaCl2 % total (rFVIII [1]) [%]	2% acetic acid % total (rFVIII [1]) [%]	2% acetic acid ng (rFVIII [1]) [ng]	Flow through % total (rFVIII [1]) [%]	Total ng (rFVIII [1]) [ng]	Flow through ng (rFVIII [1]) [ng]	Total dpm (rFVIII [2]) [dpm]	0.5M CaCl2 % total (rFVIII [2]) [%]	2% acetic acid % total (rFVIII [2]) [%]	2% acetic acid dpm (rFVIII [2]) [dpm]	0.5M CaCl2 dpm (rFVIII [2]) [dpm]	beads % total (rFVIII [2]) [%]	beads dpm (rFVIII [2]) [dpm]	binding of rFVIII in words (rFVIII [2]; plate format)	ELISA results % total (rFVIII [1]) [%]
3 (YVQGLW) [compound 3]								2020	74	19	379	1502	7	140		
8 (RPRW) [compound 8]	5449	97	0	10	2	5623	122	4098	86	9	377	3543	4	178		97
4 (FRPHWA) [compound 4]	5510	90	3	160	4	6123	225	3744	78	17	631	2905	6	209		90

Second part, the substance after the results:

0.5M CaCl2 ng (rFVIII [1]) [ng]	0.5M CaCl2 % total (rFVIII [1]) [%]	2% acetic acid % total (rFVIII [1]) [%]	2% acetic acid ng (rFVIII [1]) [ng]	Flow through % total (rFVIII [1]) [%]	Total ng (rFVIII [1]) [ng]	Flow through ng (rFVIII [1]) [ng]	Total dpm (rFVIII [2]) [dpm]	0.5M CaCl2 % total (rFVIII [2]) [%]	2% acetic acid % total (rFVIII [2]) [%]	2% acetic acid dpm (rFVIII [2]) [dpm]	0.5M CaCl2 dpm (rFVIII [2]) [dpm]	beads % total (rFVIII [2]) [%]	beads dpm (rFVIII [2]) [dpm]	binding of rFVIII in words (rFVIII [2]; plate format)	ELISA results % total (rFVIII [1]) [%]	Substance
201	4	0	10	95	4962	4719	274	80	15	41	219	5	14	non binder		IGF [reference compound]
2362	56	18	760	0	4200	8	2608	25	67	1752	651	8	205			18 (WLWSHN) [compound 18]
